We go through three molecules from patent US20140341881A1 (DERMADIS, published 2014).

For experiment [1], the target named is T1, human kallikrein 2 (hK2) (human, UniProt P20151 25-261).
T1 construct: two preparations treated as one molecule; also called kallikrein hK2
The experiment is described as follows: residual enzyme activity against [I]o/[E]o, fluorogenic substrate.

Experiment [2] concerns the target T2, human chymotrypsin (Chtr) (human, UniProt P17538 19-263). Described as above.
For experiment [3], the target named is T3, human plasma kallikrein (PK) (human, UniProt P03952 20-638). Described as above.
Experiment [4] has as its target T4, human neutrophil elastase (HNE) (human, UniProt P08246 30-247, limits assumed).
T4 sequence (looked up): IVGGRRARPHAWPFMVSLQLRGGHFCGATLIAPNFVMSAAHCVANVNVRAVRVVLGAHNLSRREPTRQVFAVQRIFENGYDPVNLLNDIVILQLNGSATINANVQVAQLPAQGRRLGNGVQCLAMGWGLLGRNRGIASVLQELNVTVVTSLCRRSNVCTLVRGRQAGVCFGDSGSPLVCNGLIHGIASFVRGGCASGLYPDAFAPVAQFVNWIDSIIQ
The description is as above.

Experiment [5] concerns the target T1, human kallikrein 2 (hK2). The experiment is described as follows: progress curve, pseudo-first order, fluorogenic substrate. The protocol: (§1) Under these conditions, a fixed amount of enzyme (2 nM) was mixed with different concentrations of inhibitor (0-800 nM) and an excess of substrate (10 μM). Each reaction was made in reaction buffer (50 mM Tris pH 7.5, 150 mM NaCl, 0,05% Triton X-100, 0.01% BSA) at 25° C. for 45 min and the rate of product formation was measured using a FLₓ800 fluorescence 96-well microplate reader (Biotek, USA). In this model, inhibition is considered to be irreversible over the course of reaction and the progress of enzyme activity is expressed by product formation (P), beginning at a rate (vz) and is inhibited over time (t) at a first-order rate (kobs), rate constant that is dependent only on inhibitor concentration.

Experiment [6] deals with T2, human chymotrypsin (Chtr). Described as above. As to the method:
as §1

Experiment [7] concerns the target T3, human plasma kallikrein (PK). The experiment is described as above. As to the method:
as §1

Experiment [8] deals with T4, human neutrophil elastase (HNE). The description is as above. The protocol: as §1
For experiment [9], the target named is T1, human kallikrein 2 (hK2). As to the kind of experiment: cell-based or functional assay.
The target in experiment [10] is urokinase plasminogen activator (uPA) (UniProt P00749 21-431, limits assumed). As to the kind of experiment: cell-based or functional assay.
Experiment [11] deals with T2, human chymotrypsin (Chtr). The experiment is described as follows: cell-based or functional assay.
The target in experiment [12] is T3, human plasma kallikrein (PK). As to the kind of experiment: cell-based or functional assay.
The target in experiment [13] is T4, human neutrophil elastase (HNE). The experiment is described as follows: cell-based or functional assay.
In experiment [14] the target is human kallikrein hK1 (human, UniProt P06870 25-262). The experiment is described as follows: cell-based or functional assay.
Experiment [15] has as its target T2, human chymotrypsin (Chtr). The experiment is described as follows: progress curve.
For experiment [16], the target named is T3, human plasma kallikrein (PK). The experiment is described as follows: progress curve.
Experiment [17] addresses T5, human kallikrein 14 (hK14) (human, UniProt Q9P0G3 25-251, limits assumed).
T5 construct: range counted on GenBank AAK48524 (printed), which may differ from the UniProt numbering; also called recombinant hK14
T5 sequence (looked up): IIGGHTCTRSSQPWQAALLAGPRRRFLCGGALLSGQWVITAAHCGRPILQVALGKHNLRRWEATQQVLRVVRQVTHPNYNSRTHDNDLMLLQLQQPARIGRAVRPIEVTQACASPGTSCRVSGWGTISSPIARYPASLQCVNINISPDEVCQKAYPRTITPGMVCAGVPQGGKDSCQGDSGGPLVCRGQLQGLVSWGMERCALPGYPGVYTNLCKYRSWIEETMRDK
As to the kind of experiment: progress curve.

The target in experiment [18] is thrombin. As to the kind of experiment: cell-based or functional assay.
In experiment [19] the target is T6, human kallikrein 8 (hK8) (human, UniProt O60259 33-260).
T6 sequence (looked up): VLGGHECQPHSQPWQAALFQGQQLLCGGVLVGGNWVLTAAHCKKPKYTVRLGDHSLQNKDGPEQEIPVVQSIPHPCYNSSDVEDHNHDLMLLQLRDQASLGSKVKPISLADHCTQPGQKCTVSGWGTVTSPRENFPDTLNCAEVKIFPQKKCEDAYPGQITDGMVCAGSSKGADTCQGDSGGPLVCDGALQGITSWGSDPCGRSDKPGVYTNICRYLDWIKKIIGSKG
As to the kind of experiment: cell-based or functional assay.

Experiment [20] addresses T2, human chymotrypsin (Chtr). As to the kind of experiment: cell-based or functional assay. This is another data set of the same source.
Experiment [21] has as its target T3, human plasma kallikrein (PK). As to the kind of experiment: cell-based or functional assay. This is another data set of the same source.
For experiment [22], the target named is T4, human neutrophil elastase (HNE). The experiment is described as follows: cell-based or functional assay. The source holds these as a separate data set.
Experiment [23] has as its target T5, human kallikrein 14 (hK14). The experiment is described as follows: cell-based or functional assay.
In experiment [24] the target is T1, human kallikrein 2 (hK2). The experiment is described as follows: Western blot, 1 µg inhibitor with 100 ng kallikrein, 1 h at 37 C. As to the method:
(§2) Analysis of the inhibitory reaction between rACTs and the human kallikreins were analysed by Western Blot (data not shown). For each variants of ACT, 1 μg of inhibitor was incubated with 100 ng of either hK2 or hK3 during 1 hour at 37° C. under physiological conditions.

For experiment [25], the target named is T7, prostate specific antigen (PSA, hK3) (human, UniProt P07288 25-261). The description is as above. As to the method:
as §2

For experiment [26], the target named is T6, human kallikrein 8 (hK8). The experiment is described as follows: residual enzyme activity against [I]o/[E]o.
The target of experiment [27] is T2, human chymotrypsin (Chtr). The experiment is described as follows: residual enzyme activity against [I]o/[E]o.
Experiment [28] has as its target T3, human plasma kallikrein (PK). The experiment is described as follows: residual enzyme activity against [I]o/[E]o.
The target of experiment [29] is T5, human kallikrein 14 (hK14). As to the kind of experiment: residual enzyme activity against [I]o/[E]o.
Experiment [30] addresses T3, human plasma kallikrein (PK). The experiment is described as follows: progress curve, ka with PK against ka with hK2. The protocol:
as §1
The rate of inhibitory reaction with variant ACTs was determined for each protease showing reactivity with these inhibitors. To that end, interaction of hK2 and recombinant serpins was measured under pseudo-first order conditions using progress curve method. hK2 (2 nM) and substrate Z-FR-AMC […] were added to varying amounts (20 n-800 nM) of inhibitors rACT_{8.20}, rACT_{5.18} and inhibitors rACT_{6.2}, rACT_{8.3}, rACT_{6.7}, rACT_{6.1} (data not shown). […] After determination of kobs, association constants (ka) were calculated using Kₘ of the proteases for their corresponding substrates (table VI). […]

Experiment [31] addresses T7, prostate specific antigen (PSA, hK3). The experiment is described as follows: cell-based or functional assay.

Numbering of substitutions follows the chain as printed. Where two headings read alike, the source gives them in different places.

T3 sequence (P03952 20-638 limits assumed): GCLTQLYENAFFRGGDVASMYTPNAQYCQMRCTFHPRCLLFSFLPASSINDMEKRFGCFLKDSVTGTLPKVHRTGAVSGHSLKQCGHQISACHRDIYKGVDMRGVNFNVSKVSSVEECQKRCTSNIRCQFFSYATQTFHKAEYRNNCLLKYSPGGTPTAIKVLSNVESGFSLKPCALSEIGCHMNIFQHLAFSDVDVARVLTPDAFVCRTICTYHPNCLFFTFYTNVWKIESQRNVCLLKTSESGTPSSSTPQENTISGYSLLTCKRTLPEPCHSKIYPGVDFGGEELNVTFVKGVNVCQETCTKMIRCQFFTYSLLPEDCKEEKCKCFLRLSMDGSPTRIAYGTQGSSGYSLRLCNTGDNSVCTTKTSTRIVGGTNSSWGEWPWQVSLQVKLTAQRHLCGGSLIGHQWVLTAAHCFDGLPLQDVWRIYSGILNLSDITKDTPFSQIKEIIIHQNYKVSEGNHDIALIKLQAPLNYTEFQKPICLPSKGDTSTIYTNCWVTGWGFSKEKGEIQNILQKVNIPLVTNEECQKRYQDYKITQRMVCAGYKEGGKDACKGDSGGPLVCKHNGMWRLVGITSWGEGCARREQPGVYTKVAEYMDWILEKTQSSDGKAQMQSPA
T2 sequence (P17538 19-263): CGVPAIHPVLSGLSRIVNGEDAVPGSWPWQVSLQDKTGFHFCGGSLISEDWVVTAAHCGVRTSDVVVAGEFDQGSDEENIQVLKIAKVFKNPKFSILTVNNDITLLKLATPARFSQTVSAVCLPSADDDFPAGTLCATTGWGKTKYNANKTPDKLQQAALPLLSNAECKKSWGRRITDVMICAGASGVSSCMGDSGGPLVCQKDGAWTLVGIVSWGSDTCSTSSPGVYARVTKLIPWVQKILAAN

B1: rACT8.20 (other)
chain: MRGSHHHHHHSRHPNSPLDEENLTQENQDRGTHVDLGLASANVDFAFSLYKQLVLKAPDKNVIFSPLSISTALAFLSLGAHNTTLTEILKGLKFNLTETSEAEIHQSFQHLLRTLNQSSDELQLSMGNAMFVKEQLSLLDRFTEDAKRLYGSEAFATDFQDSAAAKKLINDYVKNGTRGKITDLIKDLDSQTMMVLVNYIFFKAKWEMPFDPQDTHQSRFYLSKKKWVMVPMMSLHHLTIPYFRDEELSCTVVELKYTGNASALFILPDQDKMEEVEAMLLPETLKRWRDSLEFREIGELYLPKFSISRDYNLNDILLQLGIEEAFTSKADLSGITGARNLAVSQVVHKAVLDVFEEGTEASAATAVKITLRSRAVETRTIVRFNRPFLMIIVPTDTQNIFFMSKVTNPKQA
notes: recombinant alpha-1-antichymotrypsin (serpin) variant, RSL substrate peptide LRSRA; N-terminal His tag, E. coli TG1; also called MD820; MD 820
Regarding B1, the “SI (stoichiometry of inhibition)” value in [1] is 105; in experiment [2], 134; in experiment [3], 150; in experiment [4] it was 334. In addition, the kon in experiment [5] amounted to 1780 M⁻¹ s⁻¹; in [6] it was 905 M⁻¹ s⁻¹; in [7], 424 M⁻¹ s⁻¹; in [8], 158 M⁻¹ s⁻¹. The INHIBITION % came out at 95% in experiment [9]; 0% in experiment [10]; 66% in [11]; 54% in experiment [12]; 30% in experiment [13]; 0% in experiment [14].

B2: rACTPCI (other)
chain: B1 chain with L371F, R374A, A375L
notes: E. coli TG1, Ni-NTA purified; also called MDCI; MD CI
Turning to B2, the kon worked out at 86200 M⁻¹ s⁻¹ in experiment [15], 25900 M⁻¹ s⁻¹ in [16] and 287000 M⁻¹ s⁻¹ in experiment [17]. The INHIBITION % in experiment [18] was 0%; in experiment [19], ~25%; in experiment [20] it was 98%; in [21] it was 100%; in experiment [22], 0%; in experiment [23], 100%. In addition, the binding result in experiment [24] and in experiment [25] was “binds” throughout. In addition, the “SI (stoichiometry of inhibition)” value in [26] was ~180; in experiment [27], 1; in [28] it was 4.6; in experiment [29], 3.2.

B3: rACT6.7 (other)
chain: B1 chain with T370K, S373T, R374T, A375L
notes: recombinant ACT variant, RSL substrate peptide KLRTT; N-terminal His tag, E. coli TG1; also called MD67; MD 67
With B3, the results for the “SI (stoichiometry of inhibition)” value in experiment [1] and in experiment [3] were 9 and 277, respectively. The “fold lower ka than with hK2” value in experiment [30] was 45 fold. For the same molecule, the kon in experiment [5] was found to be 8990 M⁻¹ s⁻¹; in experiment [7], 201 M⁻¹ s⁻¹. Also, the INHIBITION % is 100% in [9]; 0% in experiment [31]; 0% in experiment [10]; 36% in experiment [12]; 0% in [14].
